Assay results from patent US20040191811A1, “Methods for measuring levels of uridine-diphosphate-N-acetylglucosamine and activity of inhibitors thereof” (priority 2002, published 2004).

B1: GFAT-beta (Homo sapiens) (protein)
chain: MCGIFAYMNYRVPRTRKEIFETLIKGLQRLEYRGYDSAGVAIDGNNHEVKERHIQLVKKRGKVKALDEELYKQDSMDLKVEFETHFGIAHTRWATHGVPSAVNSHPQRSDKGNEFVVIHNGIITNYKDLRKFLESKGYEFESETDTETIAKLIKYVFDNRETEDITFSTLVERVIQQLEGAFALVFKSVHYPGEAVATRRGSPLLIGVRSKYKLSTEQIPILYRTCTLENVKNICKTRMKRLDSSACLHAVGDKAVEFFFASDASAIIEHTNRVIFLEDDDIAAVADGKLSIHRVKRSASDDPSRAIQTLQMELQQIMKGNFSAFMQKEIFEQPESVFNTMRGRVNFETNTVLLGGLKDHLKEIRRCRRLIVIGCGTSYHAAVATRQVLEELTELPVMVELASDFLDRNTPVFRDDVCFFISQSGETADTLLALRYCKDRGALTVGVTNTVGSSISRETDCGVHINAGPEIGVASTKAYTSQFISLVMFGLMMSEDRISLQNRRQEIIRGLRSLPELIKEVLSLEEKIHDLALELYTQRSLLVMGRGYNYATCLEGALKIKEITYMHSEGILAGELKHGPLALIDKQMPVIMVIMKDPCFAKCQNALQQVTARQGRPIILCSKDDTESSKFAYKTIELPHTVDCLQGILSVIPLQLLSFHLAVLRGYDVDFPRNLAKSVTVE
notes: made in house; host or cells: SF9 insect cells (sonicated, centrifuged cell extract, not purified)
B2: GFAT-alpha (Homo sapiens) (protein)
chain: MCGIFAYLNYHVPRTRREILETLIKGLQRLEYRGYDSAGVGFDGGNDKDWEANACKIQLIKKKGKVKALDEEVHKQQDMDLDIEFDVHLGIAHTRWATHGEPSPVNSHPQRSDKNNEFIVIHNGIITNYKDLKKFLESKGYDFESETDTETIAKLVKYMYDNRESQDTSFTTLVERVIQQLEGAFALVFKSVHFPGQAVGTRRGSPLLIGVRSEHKLSTDHIPILYRTGKDKKGSCNLSRVDSTTCLFPVEEKAVEYYFASDASAVIEHTNRVIFLEDDDVAAVVDGRLSIHRIKRTAGDHPGRAVQTLQMELQQIMKGNFSSFMQKEIFEQPESVVNTMRGRVNFDDYTVNLGGLKDHIKEIQRCRRLILIACGTSYHAGVATRQVLEELTELPVMVELASDFLDRNTPVFRDDVCFFLSQSGETADTLMGLRYCKERGALTVGITNTVGSSISRETDCGVHINAGPEIGVASTKAYTSQFVSLVMFALMMCDDRISMQERRKEIMLGLKRLPDLIKEVLSMDDEIQKLATELYHQKSVLIMGRGYHYATCLEGALKIKEITYMHSEGILAGELKHGPLALVDKLMPVIMIIMRDHTYAKCQNALQQVVARQGRPVVICDKEDTETIKNTKRTIKVPHSVDCLQGILSVIPLQLLAFHLAVLRGYDVDFPRNLAKSVTVE
notes: as for B1

Experiments:
Type in all cases: biochemical, human
Settings in all cases: other: extracts from transfected SF9 insect cells, 60 minutes at 37° C.
[1] = substrate: NC(=O)CC[C@H](N)C(=O)O; assay: Substrate Km determination for GFAT-beta (Lineweaver-Burk plot)
Protocol: (§1) FIG. 3 illustrates the effect of varying concentrations of the substrates glutamine and fructose 6-phosphate on the enzyme activity of GFAT-alpha and GFAT-beta. FIG. 3A is a graph illustrating incubation with 10 μl glutamine 200 mM+10 μl fructose 6-phosphate 3.125, 6.25, 12.5, 25, 50, 100, and 200 mM. FIG. 3B is a graph illustrating incubation with 10 μl fructose 6-phosphate 200 mM+10 μl glutamine 3.125, 6.25, 12.5, 25, 50, 100, and 200 mM. 10 μl of GFAT-alpha and 5 μl of GFAT-beta extracts from transfected SF9 insect cells are incubated with 1) 10 μl glutamine 200 mM+10 μl fructose 6-phosphate 3.125, 6.25, 12.5, 25, 50, 100, and 200 mM, and 2) 10 μl fructose 6-phosphate 200 mM+10 μl glutamine 3.125, 6.25, 12.5, 25, 50, 100, and 200 mM in an incubation media containing 10 μl PBS 10×, 10 μl EDTA 50 mM, 10 μl DTT 10 mM, and water to 100 μl. The plate is sealed with a Costar plate sealer and incubated for 60 minutes at 37° C. by floating on a water bath. Additional incubation mixture is kept on ice to add to standard and control samples. […] After a 20-minute incubation at 37° C., the OD is determined for each well at 585 nm.
(§2) FIG. 3C is a table illustrating the Km values of the substrates for the GFAT-alpha and GFAT-beta enzymes calculated from the data generated in FIGS. 3A and 3B. […]

[2] = substrate: O=C(CO)[C@@H](O)[C@H](O)[C@H](O)COP(=O)(O)O; assay: as above
Protocol: as §1, §2

[3] = substrate: NC(=O)CC[C@H](N)C(=O)O; assay: Substrate Km determination for GFAT-alpha (Lineweaver-Burk plot)
Protocol: as §1, §2

[4] = substrate: O=C(CO)[C@@H](O)[C@H](O)[C@H](O)COP(=O)(O)O; assay: as above
Protocol: as §1, §2

Row | Protein | Km [1] [mM] | Km [2] [mM] | Km [3] [mM] | Km [4] [mM]
1 | B1 | 1.99 | 6.8 | – | –
2 | B2 | – | – | 1.49 | 1.85
